Data: patent publication US20260232827A1 (Zymeworks, published 2026)

Experiments:
Experiment in all cases: flow cytometry, transfected HEK293-6e cells, antibody 20 nM
[1] = target: T1, Construct 7 (human NaPi2b del 317-326) (human, UniProt O95436 1-690)
T1 construct: also called CL_#29921
T1 sequence: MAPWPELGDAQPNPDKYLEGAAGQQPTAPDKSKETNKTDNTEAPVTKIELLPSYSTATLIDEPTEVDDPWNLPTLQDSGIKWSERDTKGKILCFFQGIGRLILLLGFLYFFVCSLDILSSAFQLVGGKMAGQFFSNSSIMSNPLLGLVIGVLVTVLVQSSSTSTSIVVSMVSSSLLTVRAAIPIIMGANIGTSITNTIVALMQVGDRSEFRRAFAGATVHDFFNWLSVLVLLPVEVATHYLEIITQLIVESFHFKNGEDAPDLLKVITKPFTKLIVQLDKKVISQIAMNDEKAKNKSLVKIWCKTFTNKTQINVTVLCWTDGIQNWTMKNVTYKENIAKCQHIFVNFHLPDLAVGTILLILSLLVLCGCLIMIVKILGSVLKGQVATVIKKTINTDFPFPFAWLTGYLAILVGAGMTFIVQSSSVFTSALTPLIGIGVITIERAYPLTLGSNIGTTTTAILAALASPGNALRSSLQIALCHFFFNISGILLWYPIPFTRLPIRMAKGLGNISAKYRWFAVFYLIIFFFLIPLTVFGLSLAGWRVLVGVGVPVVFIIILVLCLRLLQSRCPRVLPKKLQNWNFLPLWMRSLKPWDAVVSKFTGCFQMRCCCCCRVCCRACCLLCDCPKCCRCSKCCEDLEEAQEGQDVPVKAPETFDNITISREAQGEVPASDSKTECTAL

[2] = target: T2, Construct 1 (chimeric human NaPi2b, swap in NaPi2c in 239-259) (human)
T2 construct: also called CL_#29914

[3] = target: T3, Construct 3 (chimeric human NaPi2b, swap in NaPi2c in 304-321) (human)
T3 construct: also called CL_#29916

[4] = target: T4, Construct 5 (chimeric human NaPi2b, swap in NaPi2a in 304-348) (human)
T4 construct: also called CL_#13436

[5] = target: T5, Full length human NaPi2b (sodium-dependent phosphate transporter 2B, SLC34A2) (human, UniProt O95436 1-690)
T5 construct: also called huNaPi2b; CL_#13432
T5 sequence: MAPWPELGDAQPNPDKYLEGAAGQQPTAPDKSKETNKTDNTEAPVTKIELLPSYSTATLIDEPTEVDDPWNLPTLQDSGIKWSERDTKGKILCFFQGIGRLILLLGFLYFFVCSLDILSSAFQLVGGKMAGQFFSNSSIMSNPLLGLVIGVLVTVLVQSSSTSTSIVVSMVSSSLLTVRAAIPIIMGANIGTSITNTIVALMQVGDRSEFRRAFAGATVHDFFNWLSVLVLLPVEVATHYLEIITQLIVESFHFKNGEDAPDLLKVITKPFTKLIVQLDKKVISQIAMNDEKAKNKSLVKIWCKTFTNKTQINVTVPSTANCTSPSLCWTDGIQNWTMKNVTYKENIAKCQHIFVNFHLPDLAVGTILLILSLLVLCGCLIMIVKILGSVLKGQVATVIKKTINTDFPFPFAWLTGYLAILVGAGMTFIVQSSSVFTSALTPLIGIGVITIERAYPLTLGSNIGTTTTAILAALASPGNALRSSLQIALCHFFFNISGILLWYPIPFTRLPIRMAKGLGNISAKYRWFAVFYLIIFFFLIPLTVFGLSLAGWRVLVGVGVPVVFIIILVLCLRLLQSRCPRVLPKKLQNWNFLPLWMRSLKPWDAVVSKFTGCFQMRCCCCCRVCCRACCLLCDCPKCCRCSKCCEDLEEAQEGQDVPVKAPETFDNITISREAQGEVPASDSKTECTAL

[6] = target: T6, Construct 4 (chimeric human NaPi2b, swap in NaPi2c in 341-358) (human)
T6 construct: also called CL_#13435

| Binder | Background-Subtracted AF647 Mean Fluorescence Intensity [1] [MFI] | Background-Subtracted AF647 Mean Fluorescence Intensity [2] [MFI] | Background-Subtracted AF647 Mean Fluorescence Intensity [3] [MFI] | Background-Subtracted AF647 Mean Fluorescence Intensity [4] [MFI] | Background-Subtracted AF647 Mean Fluorescence Intensity [5] [MFI] | Background-Subtracted AF647 Mean Fluorescence Intensity [6] [MFI] |
| --- | --- | --- | --- | --- | --- | --- |
| palivizumab (v21995), anti-RSV antibody, negative control (antibody, human IgG1, kappa, V domains shown) VH: QVTLRESGPALVKPTQTLTLTCTFSGFSLSTSGMSVGWIRQPPGKALEWLADIWWDDKKDYNPSLKSRLTISKDTSKNQVVLKVTNMDPADTATYYCARSMITNWYFDVWGAGTTVTVSS VL: DIQMTQSPSTLSASVGDRVTITCKSQLSVGYMHWYQQKPGKAPKLLIYDTSKLASGVPSRFSGSGSGTEFTLTISSLQPDDFATYYCFQGSGYPFTFGGGTKLEIKR | -85 | -27 | 39 | 123 | 13 | 22 |
| lifastuzumab (v18993), reference anti-NaPi2b antibody (antibody, human IgG1, kappa) heavy 1: GEVQLVESGGGLVQPGGSLRLSCAASGFSFSDFAMSWVRQAPGKGLEWVATIGRVAFHTYYPDSMKGRFTISRDNSKNTLYLQMNSLRAEDTAVYYCARHRGFDVGHFDFWGQGTLVTVSSASTKGPSVFPLAPSSKSTSGGTAALGCLVKDYFPEPVTVSWNSGALTSGVHTFPAVLQSSGLYSLSSVVTVPSSSLGTQTYICNVNHKPSNTKVDKKVEPKSCDKTHTCPPCPAPELLGGPSVFLFPPKPKDTLMISRTPEVTCVVVDVSHEDPEVKFNWYVDGVEVHNAKTKPREEQYNSTYRVVSVLTVLHQDWLNGKEYKCKVSNKALPAPIEKTISKAKGQPREPQVYVYPPSRDELTKNQVSLTCLVKGFYPSDIAVEWESNGQPENNYKTTPPVLDSDGSFALVSKLTVDKSRWQQGNVFSCSVMHEALHNHYTQKSLSLSPG heavy 2: not shown light: GDIQMTQSPSSLSASVGDRVTITCRSSETLVHSSGNTYLEWYQQKPGKAPKLLIYRVSNRFSGVPSRFSGSGSGTDFTLTISSLQPEDFATYYCFQGSFNPLTFGQGTKVEIKRTVAAPSVFIFPPSDEQLKSGTASVVCLLNNFYPREAKVQWKVDNALQSGNSQESVTEQDSKDSTYSLSSTLTLSKADYEKHKVYACEVTHQGLSSPVTKSFNRGEC | 35 | 1700 | 920 | 52 | 1370 | 1050 |
